# Measured values reported in publication PMC3017119, “Structural Basis for the Recognition of Cellular mRNA Export Factor REF by Herpes Viral Proteins HSV-1 ICP27 and HVS ORF57” (PLoS Pathogens, 2011).
# B1: ICP27^1–138: recombinant fragment aa 1–138 of HSV-1 ICP27 (protein)
# chain: MATDIDMLIDLGLDLSDSDLDEDPPEPAESRRDDLESDSSGECSSSDEDMEDPHGEDGPEPILDAARPAVRPSRPEDPGVPSTQTPRPTERQGPNDPQPAPHSVWSRLGARRPSCSPEQHGGKVARLQPPPTKAQPAR
# modifications: 35S-radiolabelled
# notes: recombinant fragment aa 1–138 of HSV-1 ICP27
# How the values were obtained:
# GST-REF2-I = GST-REF2-I pull down of 35S-radiolabelled ICP27 fragments; format: binding, murine; details: 35S-radiolabelled protein from rabbit reticulocytes, glutathione beads, RB100 buffer pH 7.5, 10 µg/ml RNAse A; SDS-PAGE, PhosphoImage
# Text: To confirm the position of REF-binding domains within ICP27 and ORF57 and to minimise the size of constructs for more detailed NMR mapping, a series of fragments derived from HSV-1 ICP27 were screened for binding to GST-REF2-I using pull down assays (Fig. 1). […] The REF-binding fragment of ORF57 aa 8–120 identified previously similarly interacted with the same fragments of REF (Fig. 1D).
# Figure 1 Identification of regions for the interactions between REF and ICP27/ORF57. (A) Subdivision of ICP27, ORF57 and REF2-I in fragments. […] (C) Fusion of the ICP27^103–138 peptide to GST allows a specific pull down of REF, REF^1–155 (NM) and REF^54–155 (Δ53) and a very weak pull down of the REF^1–70 (N); no interaction is detected with the control Ras protein. (D) Same pull down assay as panel C but using GST fusion of ORF57 aa 8–120 in place of ICP27.
# GST or GST protein fusions were first immobilised on 30 µl slurry glutathione-coated beads (GE Healthcare) before 8 µl ^35S-radiolabelled proteins synthesised in rabbit reticulocytes (Promega) were added to the binding reactions in RB100 buffer (25 mM HEPES pH 7.5/100 mM KOAc/10 mM MgCl2/1 mM DTT/0.05% Triton X-100/10% glycerol) in presence of 10 µg/ml RNAse A. Washed and eluted protein complexes were resolved on 15% SDS-PAGE stained with Coomassie blue and analysed by PhosphoImage. […]
# [1] = tested on: REF^156–218 (REF2-I C-terminal domain); assay: NMR 1H-15N correlation spectra of 15N-labelled REF^156–218 with added viral protein constructs; format: binding, murine; details: 2-fold excess of viral construct; 15N-HSQC
molecule,measurement,setting,value
B1,Binding to GST-REF2-I in pull down,GST-REF2-I,essentially the same as that of the full-length protein
same,Changes in 1H-15N correlation spectra of 15N-REF^156–218 upon addition,[1],No significant changes
